This note sets out measurements from patent US20220025021A1 (BETH ISRAEL DEACONESS MEDICAL CENTER, published 2022).

What all share (assay): cell-based or functional assay
The target of assay [1] is HIV-1 pseudovirus AC10.0.29 (HIV-1).
Assay [2] deals with HIV-1 pseudovirus 6952.v1.c20 (HIV-1).
Assay [3] addresses HIV-1 pseudovirus X1193_c1 (HIV-1).
Assay [4] deals with HIV-1 pseudovirus Ce1176_A3 (HIV-1).
In assay [5] the target is HIV-1 pseudovirus SC05.8C11.2344 (HIV-1).
A further assay concerns the target HIV-1 pseudovirus 263-8 (HIV-1).

B1: MS-70 (antibody, V domains shown)
VH: QVQLVQSGPEVRKPGTSVKVSCKAPGNTLKTYDLHWVRSVPGQGLQWMGWISHEGDKKVIVERFKAKVTIDWDRSTNTAYLQLSGLTSGDTAVYYCAKGSKHRLRDYALYDDDGALNWAVDVDYLSNLEFWGQGTAVTVSS
VL: DFVLTQSPHSLSVTPGESASISCKSSHSLIHGDRNNYLAWYVQKPGQSPQLLIYLASSRASGVPDRFSGSGSDKDFTLKISRVETEDVGTYYCMQGRESPWTFGQGTKVDIKR
As to B1, the “IC50 (neutralization in TZM.bl cells)” value in assay [1] was 0.053 µg/mL; in assay [2], 0.285 µg/mL; in assay [3], 0.111 µg/mL; in assay [4] it was 0.06 µg/mL; in assay [5], 0.508 µg/mL; with HIV-1 pseudovirus 263-8, 0.016 µg/mL. Also, the “IC80 (neutralization in TZM.bl cells)” value in assay [1] turned out to be 0.206 µg/mL; in assay [2] it was 4.84 µg/mL; in assay [3] it was 0.413 µg/mL; in assay [4], 0.968 µg/mL; in assay [5], 1.36 µg/mL; with HIV-1 pseudovirus 263-8, 0.047 µg/mL.

B2: MS-74 (antibody, V domains shown)
VH: QVQLVQSGPEVRKPGTSVKVSCKAPGNTLKTYDLHWVRSVPGQGLQWMGWISHEGDKKVIVERFKAKVTIDWDRSTNTAYLQLSGLTSGDTAVYYCAKGSKHRLRDYALYDDDGALNWAVDVDYLSNLEFWGQGTAVTVSS
VL: DFVLTQSPHSLSVTPGESASISCKSSHSLIHGDRNNYLAWYVQKPGRSPQLLIYLASSRASGVPDRFSGSGSDKDFTLKISRVETEDVGVYYCMQGRESPWTFGQGTKVDIKR
Take B2: the “IC50 (neutralization in TZM.bl cells)” value stood at 0.041 µg/mL in assay [1]; 0.285 µg/mL in assay [2]; 0.086 µg/mL in assay [3]; 0.028 µg/mL in assay [4]; 0.415 µg/mL in assay [5]; 0.013 µg/mL with HIV-1 pseudovirus 263-8. For the same molecule, the “IC80 (neutralization in TZM.bl cells)” value amounted to 0.216 µg/mL in assay [1]; 15.1 µg/mL in assay [2]; 0.296 µg/mL in assay [3]; 0.564 µg/mL in assay [4]; 1.94 µg/mL in assay [5]; 0.037 µg/mL with HIV-1 pseudovirus 263-8.

B3: MS-75 (antibody, V domains shown)
VH: QVQLVQSGPEVRKPGTSVKVSCKASGNTLKTYDLHWVRSVPGQGLQWMGWISHEGDKKVIVERFKAKVTIDWDRSTNTAYLQLSGLTSGDTAVYYCAKGSKHRLRDYALYDDDGALNWAVDVDYLSNLEFWGQGTAVTVSS
VL: DFVLTQSPHSLSVTPGESASISCKSSHSLIHGDRNNYLAWYVQKPGRSPQLLIYLASSRASGVPDRFSGSGSDKDFTLKISRVETEDVGTYYCMQGRESPWTFGQGTKVDIKR
On to B3, for which the “IC50 (neutralization in TZM.bl cells)” value in assay [1] was found to be 0.055 µg/mL; in assay [2], 0.977 µg/mL; in assay [3], 0.174 µg/mL; in assay [4], 0.139 µg/mL; in assay [5] it was 0.792 µg/mL; with HIV-1 pseudovirus 263-8, 0.018 µg/mL. Besides, the “IC80 (neutralization in TZM.bl cells)” value in assay [1] is 0.442 µg/mL; in assay [2], over 25 µg/mL; in assay [3], 0.591 µg/mL; in assay [4], 2.79 µg/mL; in assay [5], 3.72 µg/mL; with HIV-1 pseudovirus 263-8, 0.086 µg/mL.

B4: MS-76 (antibody, V domains shown)
VH: QVQLVQSGPEVRKPGTSVKVSCKAPGYTLKTYDLHWVRSVPGQGLQWMGWISHEGDKKVIVERFKAKVTIDWDRSTNTAYLQLSGLTSGDTAVYYCAKGSKHRLRDYALYDDDGALNWAVDVDYLSNLEFWGQGTAVTVSS
VL: DFVLTQSPHSLSVTPGESASISCKSSHSLIHGDRNNYLAWYVQKPGRSPQLLIYLASSRASGVPDRFSGSGSDKDFTLKISRVETEDVGTYYCMQGRESPWTFGQGTKVDIKR
Regarding B4, the “IC50 (neutralization in TZM.bl cells)” value in assay [1] was 0.047 µg/mL; in assay [2] it was 0.844 µg/mL; in assay [3], 0.126 µg/mL; in assay [4], 0.082 µg/mL; in assay [5], 0.587 µg/mL; with HIV-1 pseudovirus 263-8, 0.015 µg/mL. Moreover, the “IC80 (neutralization in TZM.bl cells)” value was 0.368 µg/mL in assay [1]; over 25 µg/mL in assay [2]; 0.575 µg/mL in assay [3]; 1.63 µg/mL in assay [4]; 2.57 µg/mL in assay [5]; 0.053 µg/mL with HIV-1 pseudovirus 263-8.

B5: MS-72 (antibody, V domains shown)
VH: QVQLVQSGPEVRKPGTSVKVSCKAPGNTLKTYDLHWVRSVPGQGLQWMGWISHEGDKKVIVERFKAKVTIDWDRSTNTAYLQLSGLTSGDTAVYYCAKGSKHRLRDYALYDDDGALNWAVDVDYLSNLEFWGQGTAVTVSS
VL: DFVLTQSPHSLSVTPGESASISCKSSHSLIHGDRNNYLAWYVQKPGRSPQLLIYLASSRASGVPDRFSGSGSDTDFTLKISRVETEDVGTYYCMQGRESPWTFGQGTKVDIKR
Turning to B5, the “IC50 (neutralization in TZM.bl cells)” value in assay [1] came out at 0.051 µg/mL; in assay [2], 0.643 µg/mL; in assay [3] it was 0.072 µg/mL; in assay [4], 0.074 µg/mL; in assay [5] it was 0.791 µg/mL; in the assay with HIV-1 pseudovirus 263-8, 0.02 µg/mL. The “IC80 (neutralization in TZM.bl cells)” value in assay [1] was determined as 0.255 µg/mL; in assay [2], 12.4 µg/mL; in assay [3], 0.258 µg/mL; in assay [4] it was 1.3 µg/mL; in assay [5], 2.85 µg/mL; in the assay with HIV-1 pseudovirus 263-8, 0.057 µg/mL.

B6: MS-77 (antibody, V domains shown)
VH: QVQLVQSGPEVRKPGTSVKVSCKAPGNTFKTYDLHWVRSVPGQGLQWMGWISHEGDKKVIVERFKAKVTIDWDRSTNTAYLQLSGLTSGDTAVYYCAKGSKHRLRDYALYDDDGALNWAVDVDYLSNLEFWGQGTAVTVSS
VL: DFVLTQSPHSLSVTPGESASISCKSSHSLIHGDRNNYLAWYVQKPGRSPQLLIYLASSRASGVPDRFSGSGSDKDFTLKISRVETEDVGTYYCMQGRESPWTFGQGTKVDIKR
Turning to B6, the “IC50 (neutralization in TZM.bl cells)” value in assay [1] stood at 0.036 µg/mL; in assay [2], 0.236 µg/mL; in assay [3], 0.109 µg/mL; in assay [4] it was 0.067 µg/mL; in assay [5], 0.516 µg/mL; with HIV-1 pseudovirus 263-8, 0.012 µg/mL. The “IC80 (neutralization in TZM.bl cells)” value stood at 0.311 µg/mL in assay [1]; 6.74 µg/mL in assay [2]; 0.398 µg/mL in assay [3]; 1.12 µg/mL in assay [4]; 2.41 µg/mL in assay [5]; 0.033 µg/mL with HIV-1 pseudovirus 263-8.

B7: MS-69 (antibody)
VH: not shown
VL: DFVLTQSPHSLSVTPGEPASISCKSSHSLIHGDRNNYLAWYVQKPGRSPQLLIYLASSRASGVPDRFSGSGSDKDFTLKISRVETEDVGTYYCMQGRESPWTFGQGTKVDIKRTVAAPSVFIFPPSDEQLKSGTASVVCLLNNFYPREAKVQWKVDNALQSGNSQESVTEQDSKDSTYSLSSTLTLSKADYEKHKVYACEVTHQGLSSPVTKSFNRGEC
Take B7: the “IC50 (neutralization in TZM.bl cells)” value in assay [1] stood at 0.029 µg/mL; in assay [2], 0.182 µg/mL; in assay [3], 0.072 µg/mL; in assay [4], 0.087 µg/mL; in assay [5] it was 0.456 µg/mL; with HIV-1 pseudovirus 263-8, 0.01 µg/mL. Besides, the “IC80 (neutralization in TZM.bl cells)” value was 0.169 µg/mL in assay [1]; 3.06 µg/mL in assay [2]; 0.326 µg/mL in assay [3]; 1.71 µg/mL in assay [4]; 1.69 µg/mL in assay [5]; 0.046 µg/mL in the assay with HIV-1 pseudovirus 263-8.

B8: MS-71 (antibody)
VH: not shown
VL: DFVLTQSPHSLSVTPGESASISCKSSHSLIHGDRNNYLAWYVQKPGRSPQLLIYLASSRASGVPDRFSGSGSGKDFTLKISRVETEDVGTYYCMQGRESPWTFGQGTKVDIKRTVAAPSVFIFPPSDEQLKSGTASVVCLLNNFYPREAKVQWKVDNALQSGNSQESVTEQDSKDSTYSLSSTLTLSKADYEKHKVYACEVTHQGLSSPVTKSFNRGEC
In the case of B8, the “IC50 (neutralization in TZM.bl cells)” value in assay [1] worked out at 0.035 µg/mL; in assay [2] it was 0.325 µg/mL; in assay [3], 0.072 µg/mL; in assay [4], 0.04 µg/mL; in assay [5], 0.425 µg/mL; with HIV-1 pseudovirus 263-8, 0.014 µg/mL. Besides, the “IC80 (neutralization in TZM.bl cells)” value in assay [1] turned out to be 0.177 µg/mL; in assay [2], 7.92 µg/mL; in assay [3], 0.265 µg/mL; in assay [4], 0.796 µg/mL; in assay [5] it was 1.41 µg/mL; in the assay with HIV-1 pseudovirus 263-8, 0.041 µg/mL.

B9: MS-73 (antibody)
VH: not shown
VL: DFVLTQSPHSLSVTPGESASISCKSSHSLIHGDRNNYLAWYVQKPGRSPQLLIYLASSRASGVPDRFSGSGSDKDFTLKISRVEAEDVGTYYCMQGRESPWTFGQGTKVDIKRTVAAPSVFIFPPSDEQLKSGTASVVCLLNNFYPREAKVQWKVDNALQSGNSQESVTEQDSKDSTYSLSSTLTLSKADYEKHKVYACEVTHQGLSSPVTKSFNRGEC
In the case of B9, the “IC50 (neutralization in TZM.bl cells)” value came out at 0.041 µg/mL in assay [1]; 0.222 µg/mL in assay [2]; 0.085 µg/mL in assay [3]; 0.035 µg/mL in assay [4]; 0.461 µg/mL in assay [5]; 0.01 µg/mL with HIV-1 pseudovirus 263-8. Further, the “IC80 (neutralization in TZM.bl cells)” value in assay [1] was found to be 0.206 µg/mL; in assay [2] it was 6.99 µg/mL; in assay [3], 0.327 µg/mL; in assay [4], 0.581 µg/mL; in assay [5], 1.62 µg/mL; in the assay with HIV-1 pseudovirus 263-8, 0.032 µg/mL.
